# Reference: the Human Domainome abundance scans (Beltran et al. 2025)
# ± gives the uncertainty stated by the source.
# B1: Peripheral plasma membrane protein CASK, residues 488 to 569; numbered along this chain, O14936 (parent)
# chain: VRLVQFQKNTDEPMGITLKMNELNHCIVARIMHGGMIHRQGTLHVGDEIREINGISVANQTVEQLQKMLREMRGSITFKIVP
# Variants of: B1
# Test: abundance fitness (aPCA) (normalised: wild type 0, dead -1); higher = more abundant; growth selection in yeast, the domain comes from the species named
# Conditions: Homo sapiens
row,Variant,abundance fitness
1,VRLVQFQKNTDEPMGITLKMNELNHCIVARIMHGGMIHRQGTLHVGDEIREINGISVANQTVEQLQKMLREMYGSITFKIVP [R73Y],-0.157 ± 0.11
2,VRLVQFQKNTDEPMGITLKMNELNHCIVARIMHGGMIHRQGTLHVGDEIREINGISVANQTVEQLQKMLREMDGSITFKIVP [R73D],-0.002 ± 0.041
3,VRLVQFQKNTDEPMGITLKMNELNHCIVARIMHGGMIHRQGTLHVGDEIREINGISVANQTVEQLQKMLREMVGSITFKIVP [R73V],-0.038 ± 0.024
4,VRLVQFQKNTDEPMGITLKMNELNHCIVARIMHGGMIHRQGTLHVGDEIREINGISVANQTVEQLQKMLREMQGSITFKIVP [R73Q],-0.006 ± 0.031
5,VRLVQFQKNTDEPMGITLKMNELNHCIVARIMHGGMIHRQGTLHVGDEIREINGISVANQTVEQLQKMLREMCGSITFKIVP [R73C],-0.011 ± 0.038
6,VRLVQFQKNTDEPMGITLKMNELNHCIVARIMHGGMIHRQGTLHVGDEIREINGISVANQTVEQLQKMLREMGGSITFKIVP [R73G],-0.022 ± 0.021
7,VRLVQFQKNTDEPMGITLKMNELNHCIVARIMHGGMIHRQGTLHVGDEIREINGISVANQTVEQLQKMLREMLGSITFKIVP [R73L],-0.113 ± 0.026
8,VRLVQFQKNTDEPMGITLKMNELNHCIVARIMHGGMIHRQGTLHVGDEIREINGISVANQTVEQLQKMLREMWGSITFKIVP [R73W],-0.117 ± 0.027
9,VRLVQFQKNTDEPMGITLKMNELNHCIVARIMHGGMIHRQGTLHVGDEIREINGISVANQTVEQLQKMLREMAGSITFKIVP [R73A],-0.082 ± 0.025
10,VRLVQFQKNTDEPMGITLKMNELNHCIVARIMHGGMIHRQGTLHVGDEIREINGISVANQTVEQLQKMLREMMGSITFKIVP [R73M],-0.077 ± 0.032
11,VRLVQFQKNTDEPMGITLKMNELNHCIVARIMHGGMIHRQGTLHVGDEIREINGISVANQTVEQLQKMLREMNGSITFKIVP [R73N],0.038 ± 0.058
12,VRLVQFQKNTDEPMGITLKMNELNHCIVARIMHGGMIHRQGTLHVGDEIREINGISVANQTVEQLQKMLREMFGSITFKIVP [R73F],-0.124 ± 0.059
13,VRLVQFQKNTDEPMGITLKMNELNHCIVARIMHGGMIHRQGTLHVGDEIREINGISVANQTVEQLQKMLREMPGSITFKIVP [R73P],-0.357 ± 0.041
14,VRLVQFQKNTDEPMGITLKMNELNHCIVARIMHGGMIHRQGTLHVGDEIREINGISVANQTVEQLQKMLREMHGSITFKIVP [R73H],-0.044 ± 0.055
15,VRLVQFQKNTDEPMGITLKMNELNHCIVARIMHGGMIHRQGTLHVGDEIREINGISVANQTVEQLQKMLREMEGSITFKIVP [R73E],-0.02 ± 0.027
16,VRLVQFQKNTDEPMGITLKMNELNHCIVARIMHGGMIHRQGTLHVGDEIREINGISVANQTVEQLQKMLREMKGSITFKIVP [R73K],0.007 ± 0.033
17,VRLVQFQKNTDEPMGITLKMNELNHCIVARIMHGGMIHRQGTLHVGDEIREINGISVANQTVEQLQKMLREMIGSITFKIVP [R73I],-0.04 ± 0.046
18,VRLVQFQKNTDEPMGITLKMNELNHCIVARIMHGGMIHRQGTLHVGDEIREINGISVANQTVEQLQKMLREMTGSITFKIVP [R73T],-0.003 ± 0.031
19,VRLVQFQKNTDEPMGITLKMNELNHCIVARIMHGGMIHRQGTLHVGDEIREINGISVANQTVEQLQKMLREMSGSITFKIVP [R73S],0.025 ± 0.025
20,VRLVQFQKNTDEPMGITLKMNELNHCIVARIMHGGMIHRQGTLHVGDEIREINGISVANQTVEQLQKMLYEMRGSITFKIVP [R70Y],-0.039 ± 0.049
21,VRLVQFQKNTDEPMGITLKMNELNHCIVARIMHGGMIHRQGTLHVGDEIREINGISVANQTVEQLQKMLRGMRGSITFKIVP [E71G],0.006 ± 0.022
22,VRLVQFQKNTDEPMGITLKMNELNHCIVARIMHGGMIHRQGTLHVGDEIREINGISVANQTVEQLQKMLRRMRGSITFKIVP [E71R],-0.008 ± 0.022
23,VRLVQFQKNTDEPMGITLKMNELNHCIVARIMHGGMIHRQGTLHVGDEIREINGISVANQTVEQLQKMLRNMRGSITFKIVP [E71N],-0.044 ± 0.063

row,Variant,abundance fitness
1,VRLVQFQKNTDEPMGITLKMNELNHCIVARIMHGGMIHRQGTLHVGDEIREINGISVANQTVEQLQKMLRCMRGSITFKIVP [E71C],-0.022 ± 0.034
2,VRLVQFQKNTDEPMGITLKMNELNHCIVARIMHGGMIHRQGTLHVGDEIREINGISVANQTVEQLQKMLRVMRGSITFKIVP [E71V],-0.034 ± 0.025
3,VRLVQFQKNTDEPMGITLKMNELNHCIVARIMHGGMIHRQGTLHVGDEIREINGISVANQTVEQLQKMLRSMRGSITFKIVP [E71S],-0.013 ± 0.029
4,VRLVQFQKNTDEPMGITLKMNELNHCIVARIMHGGMIHRQGTLHVGDEIREINGISVANQTVEQLQKMLRMMRGSITFKIVP [E71M],-0.053 ± 0.034
5,VRLVQFQKNTDEPMGITLKMNELNHCIVARIMHGGMIHRQGTLHVGDEIREINGISVANQTVEQLQKMLRYMRGSITFKIVP [E71Y],0.017 ± 0.051
6,VRLVQFQKNTDEPMGITLKMNELNHCIVARIMHGGMIHRQGTLHVGDEIREINGISVANQTVEQLQKMLRFMRGSITFKIVP [E71F],0.013 ± 0.051
7,VRLVQFQKNTDEPMGITLKMNELNHCIVARIMHGGMIHRQGTLHVGDEIREINGISVANQTVEQLQKMLRLMRGSITFKIVP [E71L],-0.074 ± 0.028
8,VRLVQFQKNTDEPMGITLKMNELNHCIVARIMHGGMIHRQGTLHVGDEIREINGISVANQTVEQLQKMLRAMRGSITFKIVP [E71A],-0.03 ± 0.025
9,VRLVQFQKNTDEPMGITLKMNELNHCIVARIMHGGMIHRQGTLHVGDEIREINGISVANQTVEQLQKMLRKMRGSITFKIVP [E71K],0.004 ± 0.037
10,VRLVQFQKNTDEPMGITLKMNELNHCIVARIMHGGMIHRQGTLHVGDEIREINGISVANQTVEQLQKMLRHMRGSITFKIVP [E71H],-0.002 ± 0.048
11,VRLVQFQKNTDEPMGITLKMNELNHCIVARIMHGGMIHRQGTLHVGDEIREINGISVANQTVEQLQKMLRDMRGSITFKIVP [E71D],0.007 ± 0.046
12,VRLVQFQKNTDEPMGITLKMNELNHCIVARIMHGGMIHRQGTLHVGDEIREINGISVANQTVEQLQKMLRTMRGSITFKIVP [E71T],-0.036 ± 0.034
13,VRLVQFQKNTDEPMGITLKMNELNHCIVARIMHGGMIHRQGTLHVGDEIREINGISVANQTVEQLQKMLRIMRGSITFKIVP [E71I],-0.036 ± 0.061
14,VRLVQFQKNTDEPMGITLKMNELNHCIVARIMHGGMIHRQGTLHVGDEIREINGISVANQTVEQLQKMLRQMRGSITFKIVP [E71Q],-0.051 ± 0.035
15,VRLVQFQKNTDEPMGITLKMNELNHCIVARIMHGGMIHRQGTLHVGDEIREINGISVANQTVEQLQKMLREMRLSITFKIVP [G74L],-0.842 ± 0.044
16,VRLVQFQKNTDEPMGITLKMNELNHCIVARIMHGGMIHRQGTLHVGDEIREINGISVANQTVEQLQKMLREMRKSITFKIVP [G74K],-0.399 ± 0.042
17,VRLVQFQKNTDEPMGITLKMNELNHCIVARIMHGGMIHRQGTLHVGDEIREINGISVANQTVEQLQKMLREMRMSITFKIVP [G74M],-0.806 ± 0.077
18,VRLVQFQKNTDEPMGITLKMNELNHCIVARIMHGGMIHRQGTLHVGDEIREINGISVANQTVEQLQKMLREMRPSITFKIVP [G74P],-0.524 ± 0.046
19,VRLVQFQKNTDEPMGITLKMNELNHCIVARIMHGGMIHRQGTLHVGDEIREINGISVANQTVEQLQKMLREMRCSITFKIVP [G74C],-0.5 ± 0.066
20,VRLVQFQKNTDEPMGITLKMNELNHCIVARIMHGGMIHRQGTLHVGDEIREINGISVANQTVEQLQKMLREMRSSITFKIVP [G74S],-0.381 ± 0.033
21,VRLVQFQKNTDEPMGITLKMNELNHCIVARIMHGGMIHRQGTLHVGDEIREINGISVANQTVEQLQKMLREMRHSITFKIVP [G74H],-0.355 ± 0.061
22,VRLVQFQKNTDEPMGITLKMNELNHCIVARIMHGGMIHRQGTLHVGDEIREINGISVANQTVEQLQKMLREMRNSITFKIVP [G74N],-0.243 ± 0.056
23,VRLVQFQKNTDEPMGITLKMNELNHCIVARIMHGGMIHRQGTLHVGDEIREINGISVANQTVEQLQKMLREMRDSITFKIVP [G74D],-0.131 ± 0.043

row,Variant,abundance fitness
1,VRLVQFQKNTDEPMGITLKMNELNHCIVARIMHGGMIHRQGTLHVGDEIREINGISVANQTVEQLQKMLREMRFSITFKIVP [G74F],-0.51 ± 0.078
2,VRLVQFQKNTDEPMGITLKMNELNHCIVARIMHGGMIHRQGTLHVGDEIREINGISVANQTVEQLQKMLREMRISITFKIVP [G74I],-1.13 ± 0.2
3,VRLVQFQKNTDEPMGITLKMNELNHCIVARIMHGGMIHRQGTLHVGDEIREINGISVANQTVEQLQKMLREMRRSITFKIVP [G74R],-0.467 ± 0.027
4,VRLVQFQKNTDEPMGITLKMNELNHCIVARIMHGGMIHRQGTLHVGDEIREINGISVANQTVEQLQKMLREKRGSITFKIVP [M72K],-0.072 ± 0.032
5,VRLVQFQKNTDEPMGITLKMNELNHCIVARIMHGGMIHRQGTLHVGDEIREINGISVANQTVEQLQKMLREQRGSITFKIVP [M72Q],-0.05 ± 0.03
6,VRLVQFQKNTDEPMGITLKMNELNHCIVARIMHGGMIHRQGTLHVGDEIREINGISVANQTVEQLQKMLRECRGSITFKIVP [M72C],0.005 ± 0.03
7,VRLVQFQKNTDEPMGITLKMNELNHCIVARIMHGGMIHRQGTLHVGDEIREINGISVANQTVEQLQKMLREERGSITFKIVP [M72E],-0.085 ± 0.028
8,VRLVQFQKNTDEPMGITLKMNELNHCIVARIMHGGMIHRQGTLHVGDEIREINGISVANQTVEQLQKMLREPRGSITFKIVP [M72P],-0.244 ± 0.045
9,VRLVQFQKNTDEPMGITLKMNELNHCIVARIMHGGMIHRQGTLHVGDEIREINGISVANQTVEQLQKMLRETRGSITFKIVP [M72T],-0.022 ± 0.031
10,VRLVQFQKNTDEPMGITLKMNELNHCIVARIMHGGMIHRQGTLHVGDEIREINGISVANQTVEQLQKMLREARGSITFKIVP [M72A],0.022 ± 0.024
11,VRLVQFQKNTDEPMGITLKMNELNHCIVARIMHGGMIHRQGTLHVGDEIREINGISVANQTVEQLQKMLREWRGSITFKIVP [M72W],-0.047 ± 0.024
12,VRLVQFQKNTDEPMGITLKMNELNHCIVARIMHGGMIHRQGTLHVGDEIREINGISVANQTVEQLQKMLRENRGSITFKIVP [M72N],-0.114 ± 0.046
13,VRLVQFQKNTDEPMGITLKMNELNHCIVARIMHGGMIHRQGTLHVGDEIREINGISVANQTVEQLQKMLREGRGSITFKIVP [M72G],-0.077 ± 0.02
14,VRLVQFQKNTDEPMGITLKMNELNHCIVARIMHGGMIHRQGTLHVGDEIREINGISVANQTVEQLQKMLREVRGSITFKIVP [M72V],-0.008 ± 0.023
15,VRLVQFQKNTDEPMGITLKMNELNHCIVARIMHGGMIHRQGTLHVGDEIREINGISVANQTVEQLQKMLREDRGSITFKIVP [M72D],-0.182 ± 0.034
16,VRLVQFQKNTDEPMGITLKMNELNHCIVARIMHGGMIHRQGTLHVGDEIREINGISVANQTVEQLQKMLREFRGSITFKIVP [M72F],0.039 ± 0.038
17,VRLVQFQKNTDEPMGITLKMNELNHCIVARIMHGGMIHRQGTLHVGDEIREINGISVANQTVEQLQKMLREIRGSITFKIVP [M72I],0.036 ± 0.042
18,VRLVQFQKNTDEPMGITLKMNELNHCIVARIMHGGMIHRQGTLHVGDEIREINGISVANQTVEQLQKMLREYRGSITFKIVP [M72Y],-0.055 ± 0.041
19,VRLVQFQKNTDEPMGITLKMNELNHCIVARIMHGGMIHRQGTLHVGDEIREINGISVANQTVEQLQKMLRESRGSITFKIVP [M72S],0.007 ± 0.026
20,VRLVQFQKNTDEPMGITLKMNELNHCIVARIMHGGMIHRQGTLHVGDEIREINGISVANQTVEQLQKMLRERRGSITFKIVP [M72R],-0.14 ± 0.021
21,VRLVQFQKNTDEPMGITLKMNELNHCIVARIMHGGMIHRQGTLHVGDEIREINGISVANQTVEQLQKMLREHRGSITFKIVP [M72H],-0.009 ± 0.046
